The text below walks through data of patent US20160289309A1.

Broadly, the Kd is a measure of binding affinity in units of concentration.

The target in assay [1] is Tau in cerebrospinal fluid of cynomolgus monkeys (free Tau / extracellular Tau, eTau) (cynomolgus monkey (Macaca fascicularis)). The assay is described as follows: cell-based or functional assay.
Assay [2] shares this target. Put plainly: estimate from a PK/PD model fitted to free eTau (ELISA) in CSF of cynomolgus monkeys dosed with hu-IPN002; not a direct binding assay.

B1: hu-IPN002 (antibody, IgG4, V domains shown)
VH: EVHLVESGGALVKPGGSLRLSCAASGFSFSKYGMSWVRQAPGKGLEWVATISSSGSRTYYPDSVKGRFTISRDNAKNTLYLQMNSLRAEDTAMYYCSISWDGAMDYWGQGTTVTVSS
VL: DVVMTQSPLSLPVTLGQPASISCKSSQSIVHSNGNTYLEWYLQKPGQSPQLLVYKVSNRFSGVPDRFSGSGSGTDFTLKISRVEAEDVGTYYCFQGSLVPWAFGGGTKVEIK
In the case of B1, in assay [1], the free eTau level in CSF between 8 and 168 hours, 20 mg/kg dose (% of baseline) is 1.35 to 7.44; the free eTau level in CSF between 48 and 96 hours, 5 mg/kg dose (% of baseline) was 17.3 to 21; the maximal reduction of CSF free eTau, single 5 mg/kg IV dose in cynomolgus monkeys is 83%; the maximal reduction of CSF free eTau, single 20 mg/kg IV dose in cynomolgus monkeys stood at 99%. The Kd in assay [2] was 0.16 nM.
